Assay results reported in the supplement of paper PMC10567573.

B1: PTPRD (parent)
chain: MVHVARLLLLLLTFFLRTDAETPP

Variants of: B1
Assay: protein stability index of a GFP-peptide fusion (GPS, HEK-293T) (PSI 1-6); higher = more stable
Details: c terminus: a fixed tail appended
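Further: lentivirally expressed fusions sorted by FACS into six bins by GFP to DsRed ratio, PSI derived from sequencing read proportions per bin multiplied by bin number.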

| Variant | protein stability index |
| --- | --- |
| MVHYARLLLLLLTFFLRTDAETPP [V4Y] | 1.52 |
| MVHMARLLLLLLTFFLRTDAETPP [V4M] | 1.46 |
| MVHSARLLLLLLTFFLRTDAETPP [V4S] | 2.46 |
| MVHNARLLLLLLTFFLRTDAETPP [V4N] | 2.68 |
| MVHRARLLLLLLTFFLRTDAETPP [V4R] | 2.34 |
| MVHIARLLLLLLTFFLRTDAETPP [V4I] | 1.41 |
| MVHLARLLLLLLTFFLRTDAETPP [V4L] | 3.81 |
| MVHCARLLLLLLTFFLRTDAETPP [V4C] | 3.07 |
| MVHTARLLLLLLTFFLRTDAETPP [V4T] | 2.52 |
| MVHVIRLLLLLLTFFLRTDAETPP [A5I] | 1.95 |
| MVHVYRLLLLLLTFFLRTDAETPP [A5Y] | 2.6 |
| MVHVRRLLLLLLTFFLRTDAETPP [A5R] | 1.78 |
| MVHVFRLLLLLLTFFLRTDAETPP [A5F] | 3.28 |
| MVHVWRLLLLLLTFFLRTDAETPP [A5W] | 2.51 |
| MVHVHRLLLLLLTFFLRTDAETPP [A5H] | 4.03 |
| MVHVCRLLLLLLTFFLRTDAETPP [A5C] | 2.97 |
| MVHVTRLLLLLLTFFLRTDAETPP [A5T] | 2.7 |
| MVHVQRLLLLLLTFFLRTDAETPP [A5Q] | 2.34 |
| MVHVLRLLLLLLTFFLRTDAETPP [A5L] | 3.83 |
| MVHVARPLLLLLTFFLRTDAETPP [L7P] | 1.74 |
| MVHVARTLLLLLTFFLRTDAETPP [L7T] | 3.27 |
| MVHVARGLLLLLTFFLRTDAETPP [L7G] | 4.57 |
| MVHVARYLLLLLTFFLRTDAETPP [L7Y] | 2.55 |
| MVHVARHLLLLLTFFLRTDAETPP [L7H] | 2.1 |

| Variant | protein stability index |
| --- | --- |
| MVHVARNLLLLLTFFLRTDAETPP [L7N] | 3.02 |
| MVHVARKLLLLLTFFLRTDAETPP [L7K] | 3.28 |
| MVHVARRLLLLLTFFLRTDAETPP [L7R] | 2.75 |
| MVHVARILLLLLTFFLRTDAETPP [L7I] | 3.46 |
| MVHVARELLLLLTFFLRTDAETPP [L7E] | 1.36 |
| MVHVARCLLLLLTFFLRTDAETPP [L7C] | 2.95 |
| MVHVARSLLLLLTFFLRTDAETPP [L7S] | 2.15 |
| MVHVARLLKLLLTFFLRTDAETPP [L9K] | 3.08 |
| MVHVARLLQLLLTFFLRTDAETPP [L9Q] | 1.8 |
| MVHVARLLHLLLTFFLRTDAETPP [L9H] | 1.53 |
| MVHVARLLDLLLTFFLRTDAETPP [L9D] | 3.06 |
| MVHVARLLILLLTFFLRTDAETPP [L9I] | 2.95 |
| MVHVARLLMLLLTFFLRTDAETPP [L9M] | 1.87 |
| MVHVARLLALLLTFFLRTDAETPP [L9A] | 2.04 |
| MVHVARLLFLLLTFFLRTDAETPP [L9F] | 2.89 |
| MVHVARLLRLLLTFFLRTDAETPP [L9R] | 1.88 |
| MVHVARLLNLLLTFFLRTDAETPP [L9N] | 1.58 |
| MVLVARLLLLLLTFFLRTDAETPP [H3L] | 2.27 |
| MVMVARLLLLLLTFFLRTDAETPP [H3M] | 2.86 |
| MVTVARLLLLLLTFFLRTDAETPP [H3T] | 3.21 |
| MVDVARLLLLLLTFFLRTDAETPP [H3D] | 2.1 |
| MVSVARLLLLLLTFFLRTDAETPP [H3S] | 4.08 |
| MVPVARLLLLLLTFFLRTDAETPP [H3P] | 1.49 |
| MVKVARLLLLLLTFFLRTDAETPP [H3K] | 1.78 |

| Variant | protein stability index |
| --- | --- |
| MVCVARLLLLLLTFFLRTDAETPP [H3C] | 4.98 |
| MVHVARLKLLLLTFFLRTDAETPP [L8K] | 1.98 |
| MVHVARLRLLLLTFFLRTDAETPP [L8R] | 2.45 |
| MVHVARLQLLLLTFFLRTDAETPP [L8Q] | 2.18 |
| MVHVARLILLLLTFFLRTDAETPP [L8I] | 2.58 |
| MVHVARLFLLLLTFFLRTDAETPP [L8F] | 2.82 |
| MVHVARLTLLLLTFFLRTDAETPP [L8T] | 3.02 |
| MVHVARLCLLLLTFFLRTDAETPP [L8C] | 1.89 |
| MVHVARLDLLLLTFFLRTDAETPP [L8D] | 3.8 |
| MVHVARLYLLLLTFFLRTDAETPP [L8Y] | 3.46 |
| MMHVARLLLLLLTFFLRTDAETPP [V2M] | 2.69 |
| MWHVARLLLLLLTFFLRTDAETPP [V2W] | 2.96 |
| MAHVARLLLLLLTFFLRTDAETPP [V2A] | 2.85 |
| MQHVARLLLLLLTFFLRTDAETPP [V2Q] | 1.88 |
| MTHVARLLLLLLTFFLRTDAETPP [V2T] | 2.06 |
| MRHVARLLLLLLTFFLRTDAETPP [V2R] | 2.51 |
| MGHVARLLLLLLTFFLRTDAETPP [V2G] | 1.83 |
| MFHVARLLLLLLTFFLRTDAETPP [V2F] | 4.14 |
| MSHVARLLLLLLTFFLRTDAETPP [V2S] | 2.4 |
| MCHVARLLLLLLTFFLRTDAETPP [V2C] | 2.73 |
| MPHVARLLLLLLTFFLRTDAETPP [V2P] | 1.93 |
| MNHVARLLLLLLTFFLRTDAETPP [V2N] | 1.79 |
| MHHVARLLLLLLTFFLRTDAETPP [V2H] | 2.53 |
| MDHVARLLLLLLTFFLRTDAETPP [V2D] | 2.92 |

| Variant | protein stability index |
| --- | --- |
| MVHVAFLLLLLLTFFLRTDAETPP [R6F] | 1.74 |
| MVHVAQLLLLLLTFFLRTDAETPP [R6Q] | 3.99 |
| MVHVAHLLLLLLTFFLRTDAETPP [R6H] | 3.34 |
| MVHVACLLLLLLTFFLRTDAETPP [R6C] | 2.16 |
| MVHVAILLLLLLTFFLRTDAETPP [R6I] | 1.13 |
| MVHVALLLLLLLTFFLRTDAETPP [R6L] | 1.9 |
| MVHVASLLLLLLTFFLRTDAETPP [R6S] | 1.88 |
| MVHVAELLLLLLTFFLRTDAETPP [R6E] | 3.41 |
| MVHVAVLLLLLLTFFLRTDAETPP [R6V] | 2.29 |
| MVHVATLLLLLLTFFLRTDAETPP [R6T] | 2.3 |
| MVHVADLLLLLLTFFLRTDAETPP [R6D] | 3.08 |
| MVHVAMLLLLLLTFFLRTDAETPP [R6M] | 1.76 |
| MVHVAKLLLLLLTFFLRTDAETPP [R6K] | 1.67 |
| EVHVARLLLLLLTFFLRTDAETPP [M1E] | 2.33 |
| TVHVARLLLLLLTFFLRTDAETPP [M1T] | 2.87 |
| QVHVARLLLLLLTFFLRTDAETPP [M1Q] | 2.33 |
| YVHVARLLLLLLTFFLRTDAETPP [M1Y] | 3.9 |
| KVHVARLLLLLLTFFLRTDAETPP [M1K] | 2.28 |
| HVHVARLLLLLLTFFLRTDAETPP [M1H] | 1.82 |
| IVHVARLLLLLLTFFLRTDAETPP [M1I] | 3.05 |
| FVHVARLLLLLLTFFLRTDAETPP [M1F] | 1.96 |
| LVHVARLLLLLLTFFLRTDAETPP [M1L] | 1.52 |
